Laboratory results taken from the supplement of paper PMC5998384.

How the values were obtained:
HeLa Kyoto [1] = test: solubility change mitosis vs G1/S (difference of NP-40 vs SDS log2 ratios) (log2 ratio difference); higher = more soluble in mitosis
HeLa Kyoto [2] = test: thermal stability score vs G1/S (z-score of summed log2 fold changes over temperatures); higher = more thermally stable than in G1/S
HeLa Kyoto [3] = test: melting temperature (median over replicates), in situ; higher = more thermally stable
HeLa Kyoto [4] = test: solubility in G1/S (NP-40 vs SDS abundance) (log2 ratio); higher = more soluble; conditions: cell cycle stage: G1/S
[5] = cell cycle stage: early G1 (4.5 h after nocodazole release)
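Wherever melting temperature (median over replicates), in situ is given: HeLa Kyoto cells synchronized by double thymidine or nocodazole block, proteins quantified by TMT10plex mass spectrometry, three independent biological replicates.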
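Wherever solubility change mitosis vs G1/S (difference of NP-40 vs SDS log2 ratios) is given: synchronized HeLa Kyoto cells (double thymidine block for G1/S, nocodazole release for mitosis), protein amounts in NP-40 versus SDS lysates quantified by mass spectrometry, three biological replicates.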
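Wherever solubility in G1/S (NP-40 vs SDS abundance) is given: HeLa Kyoto cells arrested at G1/S by double thymidine block, proteins quantified by TMT10plex mass spectrometry in mild NP-40 versus SDS extracts, three biological replicates.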
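Wherever thermal stability score vs G1/S (z-score of summed log2 fold changes over temperatures) is given: synchronized HeLa Kyoto cells, proteins quantified by TMT10plex mass spectrometry, three biological replicates, mitosis taken 0.5 h after nocodazole release, G1/S directly after double thymidine block.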

Substance	solubility change mitosis (log2) (HeLa Kyoto [1])	thermal stability score (HeLa Kyoto [2]; [5])	thermal stability score (HeLa Kyoto [2]; cell cycle stage: mitosis)	melting temperature (HeLa Kyoto [3]; cell cycle stage: G1/S)	melting temperature (HeLa Kyoto [3]; cell cycle stage: mitosis)	solubility in G1/S (log2) (HeLa Kyoto [4])
MDALEDYVWPRATSELILLPVTGLECVGDRLLAGEGPDVLVYSLDFGGHLRMIKRVQNLLGHYLIHGFRVRPEPNGDLDLEAMVAVFGSKGLRVVKISWGQGHFWELWRSGLWNMSDWIWDARWLEGNIALALGHNSVVLYDPVVGCILQEVPCTDRCTLSSACLIGDAWKELTIVAGAVSNQLLVWYPATALADNKPVAPDRRISGHVGIIFSMSYLESKGLLATASEDRSVRIWKVGDLRVPGGRVQNIGHCFGHSARVWQVKLLENYLISAGEDCVCLVWSHEGEILQAFRGHQGRGIRAIAAHERQAWVITGGDDSGIRLWHLVGRGYRGLGVSALCFKSRSRPGTLKAVTLAGSWRLLAVTDTGALYLYDVEVKCWEQLLEDKHFQSYCLLEAAPGPEGFGLCAMANGEGRVKVVPINTPTAAVDQTLFPGKVHSLSWALRGYEELLLLASGPGGVVACLEISAAPSGKAIFVKERCRYLLPPSKQRWHTCSAFLPPGDFLVCGDRRGSVLLFPSRPGLLKDPGVGGKARAGAGAPVVGSGSSGGGNAFTGLGPVSTLPSLHGKQGVTSVTCHGGYVYTTGRDGAYYQLFVRDGQLQPVLRQKSCRGMNWLAGLRIVPDGSMVILGFHANEFVVWNPRSHEKLHIVNCGGGHRSWAFSDTEAAMAFAYLKDGDVMLYRALGGCTRPHVILREGLHGREITCVKRVGTITLGPEYGVPSFMQPDDLEPGSEGPDLTDIVITCSEDTTVCVLALPTTTGSAHALTAVCNHISSVRAVAVWGIGTPGGPQDPQPGLTAHVVSAGGRAEMHCFSIMVTPDPSTPSRLACHVMHLSSHRLDEYWDRQRNRHRMVKVDPETRYMSLAVCELDQPGLGPLVAAACSDGAVRLFLLQDSGRILQLLAETFHHKRCVLKVHSFTHEAPNQRRRLLLCSAATDGSLAFWDLTTMLDHDSTVLEPPVDPGLPYRLGTPSLTLQAHSCGINSLHTLPTREGHHLVASGSEDGSLHVFVLAVEMLQLEEAVGEAGLVPQLRVLEEYSVPCAHAAHVTGLKILSPSIMVSASIDQRLTFWRLGHGEPTFMNSTVFHVPDVADMDCWPVSPEFGHRCALGGQGLEVYNWYD [WDR6]	-0.023	-0.588	0.0649	51.5 °C	51.6 °C	-0.611
MDALNRNQIGPGCQTQTMVQKGPLDLIETGKGLKVQTDKPHLVSLGSGRLSTAITLLPLEEGRTVIGSAARDISLQGPGLAPEHCYIENLRGTLTLYPCGNACTIDGLPVRQPTRLTQGCMLCLGQSTFLRFNHPAEAKWMKSMIPAGGRAPGPPYSPVPAESESLVNGNHTPQTATRGPSACASHSSLVSSIEKDLQEIMDSLVLEEPGAAGKKPAATSPLSPMANGGRYLLSPPTSPGAMSVGSSYENTSPAFSPLSSPASSGSCASHSPSGQEPGPSVPPLVPARSSSYHLALQPPQSRPSGARSESPRLSRKGGHERPPSPGLRGLLTDSPAATVLAEARRATESPRLGGQLPVVAISLSEYPASGALSQPTSIPGSPKFQPPVPAPRNKIGTLQDRPPSPFREPPGSERVLTTSPSRQLVGRTFSDGLATRTLQPPESPRLGRRGLDSMRELPPLSPSLSRRALSPLPTRTTPDPKLNREVAESPRPRRWAAHGASPEDFSLTLGARGRRTRSPSPTLGESLAPHKGSFSGRLSPAYSLGSLTGASPCQSPCVQRKLSSGDLRVPVTRERKNSITEISDNEDDLLEYHRRQRQERLREQEMERLERQRLETILNLCAEYSRADGGPEAGELPSIGEATAALALAGRRPSRGLAGASGRSSEEPGVATQRLWESMERSDEENLKEECSSTESTQQEHEDAPSTKLQGEVLALEEERAQVLGHVEQLKVRVKELEQQLQESAREAEMERALLQGEREAERALLQKEQKAVDQLQEKLVALETGIQKERDKEAEALETETKLFEDLEFQQLERESRVEEERELAGQGLLRSKAELLRSIAKRKERLAILDSQAGQIRAQAVQESERLARDKNASLQLLQKEKEKLTVLERRYHSLTGGRPFPKTTSTLKEMEKLLLPAVDLEQWYQELMAGLGTGPAAASPHSSPPPLPAKASRQLQVYRSKMDGEATSPLPRTRSGPLPSSSGSSSSSSQLSVATLGRSPSPKSALLTQNGTGSLPRNLAATLQDIETKRQLALQQKGQQVIEEQRRRLAELKQKAAAEAQCQWDALHGAAPFPAGPSGFPPLMHHSILHHLPAGRERGEEGEHAYDTLSLESSDSMETSISTGGNSACSPDNMSSASGLDMGKIEEMEKMLKEAHAEKNRLMESREREMELRRQALEEERRRREQVERRLQSESARRQQLVEKEVKMREKQFSQARPLTRYLPIRKEDFDLKTHIESSGHGVDTCLHVVLSSKVCRGYLVKMGGKIKSWKKRWFVFDRLKRTLSYYVDKHETKLKGVIYFQAIEEVYYDHLRSAAKKRFFRFTMVTESPNPALTFCVKTHDRLYYMVAPSAEAMRIWMDVIVTGAEGYTQFMN [PHLDB1]	-0.13	0.702	1.01	50.8 °C	51.1 °C	0.0569
MDAPGALAQTAAPGPGRKELKIVIVGDGGCGKTSLLMVYSQGSFPEHYAPSVFEKYTASVTVGSKEVTLNLYDTAGQEDYDRLRPLSYQNTHLVLICYDVMNPTSYDNVLIKWFPEVTHFCRGIPMVLIGCKTDLRKDKEQLRKLRAAQLEPITYMQGLSACEQIRAALYLECSAKFRENVEDVFREAAKVALSALKKAQRQKKRRLCLLL [RHOF]	-0.104	0.493	0.369	53.8 °C	53 °C	-0.0436
MDAPKAGYAFEYLIETLNDSSHKKFFDVSKLGTKYDVLPYSIRVLLEAAVRNCDGFLMKKEDVMNILDWKTKQSNVEVPFFPARVLLQDFTGIPAMVDFAAMREAVKTLGGDPEKVHPACPTDLTVDHSLQIDFSKCAIQNAPNPGGGDLQKAGKLSPLKVQPKKLPCRGQTTCRGSCDSGELGRNSGTFSSQIENTPILCPFHLQPVPEPETVLKNQEVEFGRNRERLQFFKWSSRVFKNVAVIPPGTGMAHQINLEYLSRVVFEEKDLLFPDSVVGTDSHITMVNGLGILGWGVGGIETEAVMLGLPVSLTLPEVVGCELTGSSNPFVTSIDVVLGITKHLRQVGVAGKFVEFFGSGVSQLSIVDRTTIANMCPEYGAILSFFPVDNVTLKHLEHTGFSKAKLESMETYLKAVKLFRNDQNSSGEPEYSQVIQINLNSIVPSVSGPKRPQDRVAVTDMKSDFQACLNEKVGFKGFQIAAEKQKDIVSIHYEGSEYKLSHGSVVIAAVISCTNNCNPSVMLAAGLLAKKAVEAGLRVKPYIRTSLSPGSGMVTHYLSSSGVLPYLSKLGFEIVGYGCSICVGNTAPLSDAVLNAVKQGDLVTCGILSGNKNFEGRLCDCVRANYLASPPLVVAYAIAGTVNIDFQTEPLGTDPTGKNIYLHDIWPSREEVHRVEEEHVILSMFKALKDKIEMGNKRWNSLEAPDSVLFPWDLKSTYIRCPSFFDKLTKEPIALQAIENAHVLLYLGDSVTTDHISPAGSIARNSAAAKYLTNRGLTPREFNSYGARRGNDAVMTRGTFANIKLFNKFIGKPAPKTIHFPSGQTLDVFEAAELYQKEGIPLIILAGKKYGSGNSRDWAAKGPYLLGVKAVLAESYEKIHKDHLIGIGIAPLQFLPGENADSLGLSGRETFSLTFPEELSPGITLNIQTSTGKVFSVIASFEDDVEITLYKHGGLLNFVARKFS [IREB2]	0.0731	-0.342	-0.0931	50.6 °C	49.8 °C	0.000606
MDC1	0.434	-1.53	1.05	51.2 °C	52.1 °C	-0.295
MDCGSVGGQRTQRLPGRQRLLFLPVGLSGRPGGSETSARRCLSALSDGLGALRPRAPAARGGVSRASPLLLLLLVPSPRLAAAAPRRQLGDWERSRLGYAAPPAGRSSAWRCSPGVAAAAGALPQYHGPAPALVSCRRELSLSAGSLQLERKRRDFTSSGSRKLYFDTHALVCLLEDNGFATQQAEIIVSALVKILEANMDIVYKDMVTKMQQEITFQQVMSQIANVKKDMIILEKSEFSALRAENEKIKLELHQLKQQVMDEVIKVRTDTKLDFNLEKSRVKELYSLNEKKLLELRTEIVALHAQQDRALTQTDRKIETEVAGLKTMLESHKLDNIKYLAGSIFTCLTVALGFYRLWI [MCUR1]	-0.0249	-0.0232	-0.133		52 °C	0.186
MDDIFTQCREGNAVAVRLWLDNTENDLNQGDDHGFSPLHWACREGRSAVVEMLIMRGARINVMNRGDDTPLHLAASHGHRDIVQKLLQYKADINAVNEHGNVPLHYACFWGQDQVAEDLVANGALVSICNKYGEMPVDKAKAPLRELLRERAEKMGQNLNRIPYKDTFWKGTTRTRPRNGTLNKHSGIDFKQLNFLTKLNENHSGELWKGRWQGNDIVVKVLKVRDWSTRKSRDFNEECPRLRIFSHPNVLPVLGACQSPPAPHPTLITHWMPYGSLYNVLHEGTNFVVDQSQAVKFALDMARGMAFLHTLEPLIPRHALNSRSVMIDEDMTARISMADVKFSFQCPGRMYAPAWVAPEALQKKPEDTNRRSADMWSFAVLLWELVTREVPFADLSNMEIGMKVALEGLRPTIPPGISPHVCKLMKICMNEDPAKRPKFDMIVPILEKMQDK [ILK]	-0.135	1.36	1.76	50.1 °C	50 °C	0.274
MDDREDLVYQAKLAEQAERYDEMVESMKKVAGMDVELTVEERNLLSVAYKNVIGARRASWRIISSIEQKEENKGGEDKLKMIREYRQMVETELKLICCDILDVLDKHLIPAANTGESKVFYYKMKGDYHRYLAEFATGNDRKEAAENSLVAYKAASDIAMTELPPTHPIRLGLALNFSVFYYEILNSPDRACRLAKAAFDDAIAELDTLSEESYKDSTLIMQLLRDNLTLWTSDMQGDGEEQNKEALQDVEDENQ [YWHAE]	0.181	-1.18	-2.71	55.3 °C	55.8 °C	0.336
MDEAGSSASGGGFRPGVDSLDEPPNSRIFLVISKYTPESVLRERFSPFGDIQDIWVVRDKHTKESKGIAFVKFARSSQACRAMEEMHGQCLGPNDTKPIKVFIAQSRSSGSHRDVEDEELTRIFVMIPKSYTEEDLREKFKVYGDIEYCSIIKNKVTGESKGLGYVRYLKPSQAAQAIENCDRSFRAILAEPKNKASESSEQDYYSNMRQEALGHEPRVNMFPFVGEQQSEFSSFDKNDSRGQEAISKRLSVVSRVPFTEEQLFSIFDIVPGLEYCEVQRDPYSNYGHGVVQYFNVASAIYAKYKLHGFQYPPGNRIGVSFIDDGSNATDLLRKMATQMVAAQLASMVWNNPSQQQFMQFGGSSGSQLPQIQTDVVLPSCKKKAPAETPVKERLFIVFNPHPLPLDVLEDIFCRFGNLIEVYLVSGKNVGYAKYADRISANDAIATLHGKILNGVRLKVMLADSPREESNKRQRTY [RBM45]	0.448	0.337	0.251	48.4 °C	50 °C	0.000113
MDELAGGGGGGPGMAAPPRQQQGPGGNLGLSPGGNGAAGGGGPPASEGAGPAAGPELSRPQQYTIPGILHYIQHEWARFEMERAHWEVERAELQARIAFLQGERKGQENLKKDLVRRIKMLEYALKQERAKYHKLKYGTELNQGDLKMPTFESEETKDTEAPTAPQNSQLTWKQGRQLLRQYLQEVGYTDTILDVRSQRVRSLLGLSNSEPNGSVETKNLEQILNGGESPKQKGQEIKRSSGDVLETFNFLENADDSDEDEENDMIEGIPEGKDKHRMNKHKIGNEGLAADLTDDPDTEEALKEFDFLVTAEDGEGAGEARSSGDGTEWDKDDLSPTAEVWDVDQGLISKLKEQYKKERKGKKGVKRANRTKLYDMIADLGDDELPHIPSGIINQSRSASTRMTDHEGARAEEAEPITFPSGGGKSFIMGSDDVLLSVLGLGDLADLTVTNDADYSYDLPANKDAFRKTWNPKYTLRSHFDGVRALAFHPVEPVLVTASEDHTLKLWNLQKTVPAKKSASLDVEPIYTFRAHIGPVLSLAISSNGEQCFSGGIDATIQWWNMPSPSVDPYDTYEPNVLAGTLVGHTDAVWGLAYSGIKNQLLSCSADGTVRLWNPQEKLPCICTYNGDKKHGIPTSVDFIGCDPAHMVTSFNTGSAVIYDLETSQSLVILSSQVDSGLQSNNHINRVVSHPTLPVTITAHEDRHIKFFDNKTGKMIHSMVAHLDAVTSLAVDPNGIYLMSGSHDCSIRLWNLDSKTCVQEITAHRKKLDESIYDVAFHSSKAYIASAGADALAKVFV [STRN3]	-0.0757	-0.00707	-0.722	52.1 °C	52.4 °C	-0.0799
